# In US20120316071A1 (published 2012):
# Key:
# [1] = target: T1, Recombinant Human DLL4 (R&D Systems Cat#1506-D4/CF) (human, UniProt Q9NR61 27-524); experiment: ELISA titration, 2-fold dilutions from 20 nM Fab
# T1 construct: bought recombinant protein; also called rHuman DLL4; delta-like protein 4
# [2] = target: T2, Recombinant Human DLL4 (delta-like protein 4) (human, UniProt Q9NR61 27-524); experiment: ECL (MSD) 96-well plate assay, recombinant human DLL4 coated, Fab in solution
# T2 construct: Bought recombinant human DLL4 (R&D Systems Cat#1506-D4/CF), coated on the plate; also called rHuman DLL4; Delta-like 4
# [3] = target: T2, Recombinant Human DLL4 (delta-like …); experiment: ELISA, DLL4 coated plate, Fab in solution; average signal minus noise
# [4] = target: T3, Recombinant Human DLL4 (human, UniProt Q9NR61 27-524); experiment: ECL (MSD) multispot binding assay, DLL4 spotted on plate, Fab in solution
# T3 construct: also called delta-like protein 4; rHuman DLL4
# [5] = target: T4, Recombinant Human DLL4 (delta-like protein 4) (human, UniProt Q9NR61 27-524); experiment: ELISA, DLL4 coated on plate, Fab at 10 nM, absorbance at 450 nm
# T4 construct: Bought recombinant protein (R&D Systems Cat#1506-D4/CF) coated on the ELISA plate; also called rHuman DLL4; Delta-like 4
# [6] = target: T4, Recombinant Human DLL4 (delta-like …); experiment: ELISA, DLL4 coated on plate, Fab at 0.16 nM, absorbance at 450 nm
# [7] = target: T4, Recombinant Human DLL4 (delta-like …); experiment: ELISA, DLL4 coated on plate, Fab at 2.5 nM, absorbance at 450 nm
# [8] = target: T4, Recombinant Human DLL4 (delta-like …); experiment: ELISA, DLL4 coated on plate, Fab at 5 nM, absorbance at 450 nm
# [9] = target: T4, Recombinant Human DLL4 (delta-like …); experiment: ELISA, DLL4 coated on plate, Fab at 20 nM, absorbance at 450 nm
# [10] = target: T4, Recombinant Human DLL4 (delta-like …); experiment: ELISA, DLL4 coated on plate, Fab at 1.3 nM, absorbance at 450 nm
# [11] = target: T4, Recombinant Human DLL4 (delta-like …); experiment: ELISA, DLL4 coated on plate, Fab at 0.31 nM, absorbance at 450 nm
# [12] = target: T4, Recombinant Human DLL4 (delta-like …); experiment: ELISA, DLL4 coated on plate, Fab at 0.63 nM, absorbance at 450 nm
binder,measurement,setting,value
"Fab VH1-46_IGHD6-6*01_IGHJ1*01 S102A/S103P/S104F/H111F I51E/N52L/S54T/G56H & L6_IGKJ1*01 (Fab, V domains shown, Fab; also called APFF ELTH) VH: QVQLVQSGAEVKKPGASVKVSCKASGYTFTSYYMHWVRQAPGQGLEWMGIELPTGHSTSYAQKFQGRVTMTRDTSTSTVYMELSSLRSEDTAVYYCAREEYAPFSAEYFQFWGQGTLVTVSS VL: not shown",Kd,[1],1 to 10 nM
"Fab VH1-46_IGHD6-6*01_IGHJ1*01 S102A/S103P/S104F/H111F (H:APFF) & L6_IGKJ1*01 S28N/S30D/S31H (L:NDH) (Fab, V domains shown, Parent template of this NNK series; Fab made in E. coli: heavy chain from Plasmid A (CH1, His6 and Flag tags), kappa light chain from Plasmid C (kappa CL); also called H:APFF & L:NDH) VH: QVQLVQSGAEVKKPGASVKVSCKASGYTFTSYYMHWVRQAPGQGLEWMGIINPSGGSTSYAQKFQGRVTMTRDTSTSTVYMELSSLRSEDTAVYYCAREEYAPFSAEYFQFWGQGTLVTVSS VL: EIVLTQSPATLSLSPGERATLSCRASQNVDHYLAWYQQKPGQAPRLLIYDASNRATGIPARFSGSGSGTDFTLTISSLEPEDFAVYYCQQRSNWPPWTFGQGTKVEIKR",ECL signal,[2],17200
same,ELISA (Avgerage signal-noise),[3],0.214
"Fab VH1-46_IGHD6-6*01_IGHJ1*01 S102A/S103P/S104F/H111F (APFF) & L6_IGKJ1*01 W94M (Fab, V domains shown, Fab from E. coli; VH in Plasmid A (CH1, His6 and Flag tags), VL in Plasmid C (kappa CL); also called APFF & W94M) VH: QVQLVQSGAEVKKPGASVKVSCKASGYTFTSYYMHWVRQAPGQGLEWMGIINPSGGSTSYAQKFQGRVTMTRDTSTSTVYMELSSLRSEDTAVYYCAREEYAPFSAEYFQFWGQGTLVTVSS VL: EIVLTQSPATLSLSPGERATLSCRASQSVSSYLAWYQQKPGQAPRLLIYDASNRATGIPARFSGSGSGTDFTLTISSLEPEDFAVYYCQQRSNMPPWTFGQGTKVEIKR",ECL signal,[4],33800
"Fab VH1-46_IGHD6-6*01_IGHJ1*01 S102A/S103P/S104F/H111F I51N/N52L/S54T/G56H & L6_IGKJ1*01 (Fab, V domains shown, Fab; also called APFF NLTH) VH: QVQLVQSGAEVKKPGASVKVSCKASGYTFTSYYMHWVRQAPGQGLEWMGINLPTGHSTSYAQKFQGRVTMTRDTSTSTVYMELSSLRSEDTAVYYCAREEYAPFSAEYFQFWGQGTLVTVSS VL: not shown",Kd,[1],1 to 10 nM
"Fab VH1-46_IGHD6-6*01_IGHJ1*01 S102A/S103P/S104F/H111F (H:APFF) & L6_IGKJ1*01 S28N/S30D/S31H A55C (Fab, V domains shown, Fab made in E. coli: heavy chain from Plasmid A (CH1, His6 and Flag tags), kappa light chain from Plasmid C (kappa CL); also called H:APFF & L:NDH A55C) VH: QVQLVQSGAEVKKPGASVKVSCKASGYTFTSYYMHWVRQAPGQGLEWMGIINPSGGSTSYAQKFQGRVTMTRDTSTSTVYMELSSLRSEDTAVYYCAREEYAPFSAEYFQFWGQGTLVTVSS VL: EIVLTQSPATLSLSPGERATLSCRASQNVDHYLAWYQQKPGQAPRLLIYDASNRCTGIPARFSGSGSGTDFTLTISSLEPEDFAVYYCQQRSNWPPWTFGQGTKVEIKR",ECL signal,[2],8230
same,ELISA (Avgerage signal-noise),[3],0.146
"Fab VH1-46_IGHD6-6*01_IGHJ1*01 S102A/S103P/S104F/H111F N52L/S54T/G56H & L6_IGKJ1*01 (Fab, V domains shown, Fab; also called H:APFF LTH & L:wt; APFF LTH) VH: QVQLVQSGAEVKKPGASVKVSCKASGYTFTSYYMHWVRQAPGQGLEWMGIILPTGHSTSYAQKFQGRVTMTRDTSTSTVYMELSSLRSEDTAVYYCAREEYAPFSAEYFQFWGQGTLVTVSS VL: not shown",Kd,[1],1 to 10 nM
"Fab VH1-46_IGHD6-6*01_IGHJ1*01 S102A/S103P/S104F/H111F/I51V/N52L/S54T/G56H (APFF VLTH) & L6_IGKJ1*01 (Fab, V domains shown, Tested as a Fab made in E. coli: VH in Plasmid A (CH1, His6 and Flag tags), kappa VL in Plasmid C (kappa CL); also called APPF VLTH) VH: QVQLVQSGAEVKKPGASVKVSCKASGYTFTSYYMHWVRQAPGQGLEWMGIVLPTGHSTSYAQKFQGRVTMTRDTSTSTVYMELSSLRSEDTAVYYCAREEYAPFSAEYFQFWGQGTLVTVSS VL: not shown",ELISA signal,[5],1.85
same,ELISA signal,[6],1.85
same,ELISA signal,[7],1.66
same,ELISA signal,[8],2.2
same,ELISA signal,[9],2.05
same,ELISA signal,[10],0.252
same,ELISA signal,[11],2.05
same,ELISA signal,[12],0.785
"Fab VH1-46_IGHD6-6*01_IGHJ1*01 S102A/S103P/S104F/H111F/I51T/N52L/P53A/S54T/G56H (APFF TLATH) & L6_IGKJ1*01 (Fab, V domains shown, Tested as a Fab made in E. coli: VH in Plasmid A (CH1, His6 and Flag tags), kappa VL in Plasmid C (kappa CL)) VH: QVQLVQSGAEVKKPGASVKVSCKASGYTFTSYYMHWVRQAPGQGLEWMGITLATGHSTSYAQKFQGRVTMTRDTSTSTVYMELSSLRSEDTAVYYCAREEYAPFSAEYFQFWGQGTLVTVSS VL: not shown",ELISA signal,[5],0.875
same,ELISA signal,[6],0.875
same,ELISA signal,[7],0.592
same,ELISA signal,[8],1.27
same,ELISA signal,[9],1.11
same,ELISA signal,[10],0.078
same,ELISA signal,[11],1.11
same,ELISA signal,[12],0.227
"Fab VH1-46_IGHD6-6*01_IGHJ1*01 S102A/S103P/S104F/H111F (APFF) & L6_IGKJ1*01 W94R (Fab, V domains shown, Fab from E. coli; VH in Plasmid A (CH1, His6 and Flag tags), VL in Plasmid C (kappa CL); also called APFF & W94R) VH: QVQLVQSGAEVKKPGASVKVSCKASGYTFTSYYMHWVRQAPGQGLEWMGIINPSGGSTSYAQKFQGRVTMTRDTSTSTVYMELSSLRSEDTAVYYCAREEYAPFSAEYFQFWGQGTLVTVSS VL: EIVLTQSPATLSLSPGERATLSCRASQSVSSYLAWYQQKPGQAPRLLIYDASNRATGIPARFSGSGSGTDFTLTISSLEPEDFAVYYCQQRSNRPPWTFGQGTKVEIKR",ECL signal,[4],75800
"Fab VH1-46_IGHD6-6*01_IGHJ1*01 S102A/S103P/S104F/H111F (APFF) & L6_IGKJ1*01 W94S (Fab, V domains shown, Fab from E. coli; VH in Plasmid A (CH1, His6 and Flag tags), VL in Plasmid C (kappa CL); also called APFF & W94S) VH: QVQLVQSGAEVKKPGASVKVSCKASGYTFTSYYMHWVRQAPGQGLEWMGIINPSGGSTSYAQKFQGRVTMTRDTSTSTVYMELSSLRSEDTAVYYCAREEYAPFSAEYFQFWGQGTLVTVSS VL: EIVLTQSPATLSLSPGERATLSCRASQSVSSYLAWYQQKPGQAPRLLIYDASNRATGIPARFSGSGSGTDFTLTISSLEPEDFAVYYCQQRSNSPPWTFGQGTKVEIKR",ECL signal,[4],109000
"Fab VH1-46_IGHD6-6*01_IGHJ1*01 S102A/S103P/S104F/H111F (APFF) & L6_IGKJ1*01 W94T (Fab, V domains shown, Fab from E. coli; VH in Plasmid A (CH1, His6 and Flag tags), VL in Plasmid C (kappa CL); also called APFF & W94T) VH: QVQLVQSGAEVKKPGASVKVSCKASGYTFTSYYMHWVRQAPGQGLEWMGIINPSGGSTSYAQKFQGRVTMTRDTSTSTVYMELSSLRSEDTAVYYCAREEYAPFSAEYFQFWGQGTLVTVSS VL: EIVLTQSPATLSLSPGERATLSCRASQSVSSYLAWYQQKPGQAPRLLIYDASNRATGIPARFSGSGSGTDFTLTISSLEPEDFAVYYCQQRSNTPPWTFGQGTKVEIKR",ECL signal,[4],23200
"Fab VH1-46_IGHD6-6*01_IGHJ1*01 S102A/S103P/S104F/H111F (H:APFF) & L6_IGKJ1*01 S28N/S30D/S31H A55R (Fab, V domains shown, Fab made in E. coli: heavy chain from Plasmid A (CH1, His6 and Flag tags), kappa light chain from Plasmid C (kappa CL); also called H:APFF & L:NDH A55R) VH: QVQLVQSGAEVKKPGASVKVSCKASGYTFTSYYMHWVRQAPGQGLEWMGIINPSGGSTSYAQKFQGRVTMTRDTSTSTVYMELSSLRSEDTAVYYCAREEYAPFSAEYFQFWGQGTLVTVSS VL: EIVLTQSPATLSLSPGERATLSCRASQNVDHYLAWYQQKPGQAPRLLIYDASNRRTGIPARFSGSGSGTDFTLTISSLEPEDFAVYYCQQRSNWPPWTFGQGTKVEIKR",ECL signal,[2],9030
same,ELISA (Avgerage signal-noise),[3],0.106
"Fab VH1-46_IGHD6-6*01_IGHJ1*01 S102A/S103P/S104F/H111F I51V/N52L/S54T/G56H & L6_IGKJ1*01 (Fab, V domains shown, Fab; also called APFF VLTH; APPF VLTH) VH: QVQLVQSGAEVKKPGASVKVSCKASGYTFTSYYMHWVRQAPGQGLEWMGIVLPTGHSTSYAQKFQGRVTMTRDTSTSTVYMELSSLRSEDTAVYYCAREEYAPFSAEYFQFWGQGTLVTVSS VL: not shown",Kd,[1],1 to 10 nM
"Fab VH1-46_IGHD6-6*01_IGHJ1*01 S102A/S103P/S104F/H111F I51T/N52V & L6_IGKJ1*01 (Fab, V domains shown, Fab; also called APFF I51T/N52V) VH: QVQLVQSGAEVKKPGASVKVSCKASGYTFTSYYMHWVRQAPGQGLEWMGITVPSGGSTSYAQKFQGRVTMTRDTSTSTVYMELSSLRSEDTAVYYCAREEYAPFSAEYFQFWGQGTLVTVSS VL: not shown",Kd,[1],10 to 100 nM
"Fab VH1-46_IGHD6-6*01_IGHJ1*01 S102A/S103P/S104F/H111F (APFF) & L6_IGKJ1*01 W94L (Fab, V domains shown, Fab from E. coli; VH in Plasmid A (CH1, His6 and Flag tags), VL in Plasmid C (kappa CL); also called APFF & W94L) VH: QVQLVQSGAEVKKPGASVKVSCKASGYTFTSYYMHWVRQAPGQGLEWMGIINPSGGSTSYAQKFQGRVTMTRDTSTSTVYMELSSLRSEDTAVYYCAREEYAPFSAEYFQFWGQGTLVTVSS VL: EIVLTQSPATLSLSPGERATLSCRASQSVSSYLAWYQQKPGQAPRLLIYDASNRATGIPARFSGSGSGTDFTLTISSLEPEDFAVYYCQQRSNLPPWTFGQGTKVEIKR",ECL signal,[4],11600
"Fab VH1-46_IGHD6-6*01_IGHJ1*01 S102A/S103P/S104F/H111F I51T/N52L/P53A/S54T/G56H & L6_IGKJ1*01 (Fab, V domains shown, Fab; also called APFF TLATH) VH: QVQLVQSGAEVKKPGASVKVSCKASGYTFTSYYMHWVRQAPGQGLEWMGITLATGHSTSYAQKFQGRVTMTRDTSTSTVYMELSSLRSEDTAVYYCAREEYAPFSAEYFQFWGQGTLVTVSS VL: not shown",Kd,[1],> 100 nM
